# Experimental data published in patent US20200017549A1, “NOVEL a4B7 PEPTIDE ANTAGONISTS” (Protagonist Therapeutics, Inc., priority 2013, published 2020).
# Bridge positions count the residues as written; N and C are the ends. Square brackets hold non-standard residues; d marks the D form. Ends that are not written are not given here. NMeR = CN[C@@H](CCCNC(=N)N)C(=O)O
# Molecular target: T1, recombinant human integrin α4β7 (Homo sapiens, UniProt P13612+P26010)
# T1 construct: purchased R&D Systems 5397-A30
# T1 sequence (P13612 34-970 limits assumed): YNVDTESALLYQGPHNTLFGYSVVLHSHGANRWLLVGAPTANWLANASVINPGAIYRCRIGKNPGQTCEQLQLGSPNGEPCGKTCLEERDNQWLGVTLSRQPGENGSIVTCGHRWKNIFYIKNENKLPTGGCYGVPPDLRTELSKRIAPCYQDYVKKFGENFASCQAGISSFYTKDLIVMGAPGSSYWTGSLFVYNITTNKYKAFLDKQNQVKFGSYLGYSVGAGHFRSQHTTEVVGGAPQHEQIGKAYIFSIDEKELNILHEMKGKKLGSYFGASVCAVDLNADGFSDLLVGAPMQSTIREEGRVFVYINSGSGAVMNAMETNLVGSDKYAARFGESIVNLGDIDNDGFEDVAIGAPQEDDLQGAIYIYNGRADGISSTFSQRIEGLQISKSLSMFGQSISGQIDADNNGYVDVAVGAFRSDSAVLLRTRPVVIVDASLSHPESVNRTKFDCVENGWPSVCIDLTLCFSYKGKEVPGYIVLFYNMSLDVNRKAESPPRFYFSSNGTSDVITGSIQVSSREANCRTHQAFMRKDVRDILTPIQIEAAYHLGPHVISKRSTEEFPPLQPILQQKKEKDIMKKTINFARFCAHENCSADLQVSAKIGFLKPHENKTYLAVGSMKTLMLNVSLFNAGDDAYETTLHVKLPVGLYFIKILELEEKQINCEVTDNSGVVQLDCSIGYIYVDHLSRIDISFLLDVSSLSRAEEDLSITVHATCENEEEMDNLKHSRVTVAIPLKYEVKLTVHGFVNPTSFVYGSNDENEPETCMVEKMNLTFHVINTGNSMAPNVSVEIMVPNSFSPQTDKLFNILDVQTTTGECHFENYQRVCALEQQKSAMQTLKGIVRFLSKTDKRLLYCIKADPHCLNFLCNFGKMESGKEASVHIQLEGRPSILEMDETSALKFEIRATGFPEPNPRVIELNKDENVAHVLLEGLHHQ
# T1 sequence (P26010 20-723 limits assumed): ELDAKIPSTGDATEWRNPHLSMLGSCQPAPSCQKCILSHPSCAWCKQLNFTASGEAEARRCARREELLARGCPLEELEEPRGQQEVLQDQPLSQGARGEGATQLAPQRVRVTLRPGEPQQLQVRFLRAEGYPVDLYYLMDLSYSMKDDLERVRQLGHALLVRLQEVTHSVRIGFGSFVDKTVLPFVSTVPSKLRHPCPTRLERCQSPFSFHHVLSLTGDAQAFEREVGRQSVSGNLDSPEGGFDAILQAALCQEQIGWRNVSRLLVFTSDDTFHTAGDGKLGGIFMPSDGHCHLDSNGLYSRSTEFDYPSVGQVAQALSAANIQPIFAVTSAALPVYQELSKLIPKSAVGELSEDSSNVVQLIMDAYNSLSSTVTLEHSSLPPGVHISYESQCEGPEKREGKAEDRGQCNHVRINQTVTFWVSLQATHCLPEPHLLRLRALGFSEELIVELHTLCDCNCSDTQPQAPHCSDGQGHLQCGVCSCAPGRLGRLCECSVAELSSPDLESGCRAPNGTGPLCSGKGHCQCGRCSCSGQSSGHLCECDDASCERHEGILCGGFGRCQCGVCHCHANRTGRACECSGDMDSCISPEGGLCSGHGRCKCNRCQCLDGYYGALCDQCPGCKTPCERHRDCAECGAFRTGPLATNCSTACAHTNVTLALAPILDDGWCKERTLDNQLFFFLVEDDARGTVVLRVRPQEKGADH
# Test: α4β7-MAdCAM Competition ELISA
# Assay type: binding
# Conditions: N-Me-Arg substituted, as compared to SEQ ID NO:39
# Experimental: α4β7-MAdCAM Competition ELISA
# A nickel coated plate (Pierce # 15442) was coated with recombinant human integrin α4β7 (R&D Systems #5397-A30) at 800 ng/well and incubated at room temperature with shaking for 1 hr. The solution was then remove by shaking and blocked with assay buffer (50 mM Tris-HCl pH7.6, 150 mM NaCl, 1 mM MnCl2, 0.05% Tween-20 and 0.5% BSA) at 250 ul/well. The plate was then incubated at room temperature for 1 hr. Each well was washed 3 times with wash buffer (50 mM Tris-HCl pH7.6, 100mM NaCl, 1 mM MnCl2, 0.05% Tween-20). To each well was added 25 ul of a serial dilution (3-fold dilutions in assay buffer) of peptides starting at 20 μM. 25 ul of recombinant human MAdCAM-1 (R&D Systems #6056-MC) was then added to each well at a fixed concentration 20 nM. The final starting peptide concentration was 10 μM, and the final MAdCAM-1 concentration was 10 nM. The plates were then incubated at room temperature for 1 hr to reach binding equilibrium. The wells were then washed three times with wash buffer. 50 ul of mouse anti-human IgG1-HRP (Invitrogen # A10648) diluted in 1:2000 in assay buffer was then added to each well. The wells were incubated at room temperature for 45 min with shaking. The wells were then washed 3 times with wash buffer. […] The reaction was stopped with 2N H2SO4 and absorbance was read at 450 nm.
substance,measurement,value
SEQ ID NO: 48: integrin antagonist peptide substituted with N-Me-Arg (C[NMeR]SDTLCK; disulfide 1-7),potency for α4β7 in ELISA,increased potency
